# Data taken from patent publication US20180333482A1 (LOYOLA UNIVERSITY OF CHICAGO, published 2018).
# Target: the molecule itself
# Assay: dynamic light scattering, self-association
protein,measurement,value
"recombinant wild-type MHV nsp15 protein, SUMO-fusion protein purified from E. coli (enzyme, domain: nsp15; also called WT nsp15; WT MHV Nsp15; not shown: His-SUMO tag from the pET-His-SUMO vector) SLENVVYNLVNAGHFDGRAGELPCAVIGEKVIAKIQNEDVVVFKNNTPFPTNVAVELFAKRSIRPHPELKLFRNLNIDVCWSHVLWDYAKDSVFCSSTYKVCKYTDLQCIESLNVLFDGRDNGALEAFKKCRNGVYINTTKIKSLSMIKGPQRADLNGVVVEKVGDSDVEFWFAVRKDGDDVIFSRTGSLEPSHYRSPQGNPGGNRVGDLSGNEALARGTIFTQSRLLSSFTPRSEMEKDFMDLDDDVFIAKYSLQDYAFEHVVYGSFNQKIIGGLHLLIGLARRQQKSNLVIQEFVTYDSSIHSYFITDENSGSSKSVCTVIDLLLDDFVDIVKSLNLKCVSKVVNVNVDFKDFQFMLWCNEEKVMTFYPRLQ",binding result,binds
